Source: publication PMC4351549

Biological target: CeHSP17 protein (small heat shock protein from Caenorhabditis elegans) (Caenorhabditis elegans)
Experiment: cryo-EM structure; single particle 3D reconstruction, 14,217 particles, images obtained at 4°C, tetrahedral symmetry, 14.5 Å

stoichiometry N: 24 subunits
Substance: CeHSP17 protein (small heat shock protein from Caenorhabditis elegans) (natural protein)
